Literature values as cited in patent US20180161372A1, “COMPOSITION FOR TREATING BRAIN LESIONS” (ORGANES TISSUS REGENERATION REPARATION REMPLACEMENT - OTR3, priority 2015, published 2018).

Tested on: patients
Conditions: strictly selected stroke patients

## rt-PA: t-PA (tissue plasminogen activator), thrombolysis approved for ischemic stroke
  patients developing a cerebral hemorrhage following administration: 13%
